# Reference: patent US20230242902A1, “A HIGHLY ERROR-PRONE […] R[…] FOR TARGETED CONTINUOUS EVOLUTION IN VIVO” (The Regents of the University of California, priority 2017, published 2023)
# Tested on: p1
# Assay: p1 copy number by p1-encoded mKate2 fluorescence
# Assay type: cell-based, S. cerevisiae
# Settings: OR-Y24, measured in triplicate
# Outline: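 Copy number was inferred from p1-encoded mKate2 fluorescence in saturated OR-Y24 cultures (triplicate), calibrated linearly against qPCR of p1 leu2 relative to genomic LEU3.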
row,Molecule,Mean fold-increase over w.t. (p1 copy number) [fold]
1,S733E: TP-DNAP1 variant (protein) MDYKDKALNDLRNVYADFDSLPLDFRQILIKDRATLLQKEDVEKKILERQEDAKKYAEYLKQSEIPERISLPNIKRHKGVSISFEETSEDMVLEPRPFIFDGLNIRCFRRETIFSLKNKILNMVKESSSFKNVSRQSVSFMYFKIFNKGKVIASTKSVNIYEDKIDERLEDLCNNFDDVLKKIIDVTYGYESLFVSETYSYVIFYAKSIYFPQPRCVNNWGNNIPNILTFDSFKLFTANKNNVSCIKQCSRFLWQKDFNTLEEMIEYKNGNICIVTPQLHINDVRDIKSFNDIRLYSESPIKTFSVIDNTITYLFYFKEHLGVIFNITKSRHDRRVTKFSPLSKFSDVKNITVCFDIESYFDPEKESNQVNIPFICCASIIYNKVIGNIVDFEGRDCVAQMIEYVVDICGELNISSVELIAHNGGGYDFHYILSSMYNPAAIKNILIRNNSFISFNFAHDGVKFSVKDSYSFLLCSLANASKAFLNEETFKKTDFPHHDLKTADDLYKVYKEWSSVNTEINHVVEKEKLLITSEHIVNFTKNDKSKTLIEWSKDYCRNDVLVLSKVWLEFKNAVEDIFNCELVDQTMTLAGLSYKLFQANMPFDVELRHPNKEDYFNMREALIGGRCISVNGIYKDVLCLDVKSLYPASMAFYDQPYGSFKRVSSRPKDELGIYYVRVTPNRNNKSNFFPIRSHNKITYNNFEESTYIAWYTNVDIDIGLSEGHNIEYIPFDEYGNIGYSWSKKGKIFEKYIKDVLYKLKIKYEKQNNKVKRNVIKIIMNSLWGKFAQKWVNFEYFIKSEDDIDFESEEAYKIWDTDFMLIKKIKESTYSSKPIQNGVFTLSWARYHMKSIWDAGAKEGAECIYSDTDSIFVHKEHFKKNAKFMLNGLKVPIIGSEVGQLELECEFDKLLCAGKKQYMGFYTYFQDGKPCIKEKKRFKGIPSNYIIPELYAHLLSGADKEAKIQFLKFRREWGSVKGYIENKTVKAT,2.06
2,Y829F: TP-DNAP1 variant (protein) MDYKDKALNDLRNVYADFDSLPLDFRQILIKDRATLLQKEDVEKKILERQEDAKKYAEYLKQSEIPERISLPNIKRHKGVSISFEETSEDMVLEPRPFIFDGLNIRCFRRETIFSLKNKILNMVKESSSFKNVSRQSVSFMYFKIFNKGKVIASTKSVNIYEDKIDERLEDLCNNFDDVLKKIIDVTYGYESLFVSETYSYVIFYAKSIYFPQPRCVNNWGNNIPNILTFDSFKLFTANKNNVSCIKQCSRFLWQKDFNTLEEMIEYKNGNICIVTPQLHINDVRDIKSFNDIRLYSESPIKTFSVIDNTITYLFYFKEHLGVIFNITKSRHDRRVTKFSPLSKFSDVKNITVCFDIESYFDPEKESNQVNIPFICCASIIYNKVIGNIVDFEGRDCVAQMIEYVVDICGELNISSVELIAHNGGGYDFHYILSSMYNPAAIKNILIRNNSFISFNFAHDGVKFSVKDSYSFLLCSLANASKAFLNEETFKKTDFPHHDLKTADDLYKVYKEWSSVNTEINHVVEKEKLLITSEHIVNFTKNDKSKTLIEWSKDYCRNDVLVLSKVWLEFKNAVEDIFNCELVDQTMTLAGLSYKLFQANMPFDVELRHPNKEDYFNMREALIGGRCISVNGIYKDVLCLDVKSLYPASMAFYDQPYGSFKRVSSRPKDELGIYYVRVTPNRNNKSNFFPIRSHNKITYNNFEESTYIAWYTNVDIDIGLSEGHNIEYIPFDSYGNIGYSWSKKGKIFEKYIKDVLYKLKIKYEKQNNKVKRNVIKIIMNSLWGKFAQKWVNFEYFIKSEDDIDFESEEAYKIWDTDFMLIKKIKESTFSSKPIQNGVFTLSWARYHMKSIWDAGAKEGAECIYSDTDSIFVHKEHFKKNAKFMLNGLKVPIIGSEVGQLELECEFDKLLCAGKKQYMGFYTYFQDGKPCIKEKKRFKGIPSNYIIPELYAHLLSGADKEAKIQFLKFRREWGSVKGYIENKTVKAT,2.46
3,Y829I: TP-DNAP1 variant (protein) MDYKDKALNDLRNVYADFDSLPLDFRQILIKDRATLLQKEDVEKKILERQEDAKKYAEYLKQSEIPERISLPNIKRHKGVSISFEETSEDMVLEPRPFIFDGLNIRCFRRETIFSLKNKILNMVKESSSFKNVSRQSVSFMYFKIFNKGKVIASTKSVNIYEDKIDERLEDLCNNFDDVLKKIIDVTYGYESLFVSETYSYVIFYAKSIYFPQPRCVNNWGNNIPNILTFDSFKLFTANKNNVSCIKQCSRFLWQKDFNTLEEMIEYKNGNICIVTPQLHINDVRDIKSFNDIRLYSESPIKTFSVIDNTITYLFYFKEHLGVIFNITKSRHDRRVTKFSPLSKFSDVKNITVCFDIESYFDPEKESNQVNIPFICCASIIYNKVIGNIVDFEGRDCVAQMIEYVVDICGELNISSVELIAHNGGGYDFHYILSSMYNPAAIKNILIRNNSFISFNFAHDGVKFSVKDSYSFLLCSLANASKAFLNEETFKKTDFPHHDLKTADDLYKVYKEWSSVNTEINHVVEKEKLLITSEHIVNFTKNDKSKTLIEWSKDYCRNDVLVLSKVWLEFKNAVEDIFNCELVDQTMTLAGLSYKLFQANMPFDVELRHPNKEDYFNMREALIGGRCISVNGIYKDVLCLDVKSLYPASMAFYDQPYGSFKRVSSRPKDELGIYYVRVTPNRNNKSNFFPIRSHNKITYNNFEESTYIAWYTNVDIDIGLSEGHNIEYIPFDSYGNIGYSWSKKGKIFEKYIKDVLYKLKIKYEKQNNKVKRNVIKIIMNSLWGKFAQKWVNFEYFIKSEDDIDFESEEAYKIWDTDFMLIKKIKESTISSKPIQNGVFTLSWARYHMKSIWDAGAKEGAECIYSDTDSIFVHKEHFKKNAKFMLNGLKVPIIGSEVGQLELECEFDKLLCAGKKQYMGFYTYFQDGKPCIKEKKRFKGIPSNYIIPELYAHLLSGADKEAKIQFLKFRREWGSVKGYIENKTVKAT,1.86
4,S733Q: TP-DNAP1 variant (protein) MDYKDKALNDLRNVYADFDSLPLDFRQILIKDRATLLQKEDVEKKILERQEDAKKYAEYLKQSEIPERISLPNIKRHKGVSISFEETSEDMVLEPRPFIFDGLNIRCFRRETIFSLKNKILNMVKESSSFKNVSRQSVSFMYFKIFNKGKVIASTKSVNIYEDKIDERLEDLCNNFDDVLKKIIDVTYGYESLFVSETYSYVIFYAKSIYFPQPRCVNNWGNNIPNILTFDSFKLFTANKNNVSCIKQCSRFLWQKDFNTLEEMIEYKNGNICIVTPQLHINDVRDIKSFNDIRLYSESPIKTFSVIDNTITYLFYFKEHLGVIFNITKSRHDRRVTKFSPLSKFSDVKNITVCFDIESYFDPEKESNQVNIPFICCASIIYNKVIGNIVDFEGRDCVAQMIEYVVDICGELNISSVELIAHNGGGYDFHYILSSMYNPAAIKNILIRNNSFISFNFAHDGVKFSVKDSYSFLLCSLANASKAFLNEETFKKTDFPHHDLKTADDLYKVYKEWSSVNTEINHVVEKEKLLITSEHIVNFTKNDKSKTLIEWSKDYCRNDVLVLSKVWLEFKNAVEDIFNCELVDQTMTLAGLSYKLFQANMPFDVELRHPNKEDYFNMREALIGGRCISVNGIYKDVLCLDVKSLYPASMAFYDQPYGSFKRVSSRPKDELGIYYVRVTPNRNNKSNFFPIRSHNKITYNNFEESTYIAWYTNVDIDIGLSEGHNIEYIPFDQYGNIGYSWSKKGKIFEKYIKDVLYKLKIKYEKQNNKVKRNVIKIIMNSLWGKFAQKWVNFEYFIKSEDDIDFESEEAYKIWDTDFMLIKKIKESTYSSKPIQNGVFTLSWARYHMKSIWDAGAKEGAECIYSDTDSIFVHKEHFKKNAKFMLNGLKVPIIGSEVGQLELECEFDKLLCAGKKQYMGFYTYFQDGKPCIKEKKRFKGIPSNYIIPELYAHLLSGADKEAKIQFLKFRREWGSVKGYIENKTVKAT,1.86
5,E298F: TP-DNAP1 variant (protein) MDYKDKALNDLRNVYADFDSLPLDFRQILIKDRATLLQKEDVEKKILERQEDAKKYAEYLKQSEIPERISLPNIKRHKGVSISFEETSEDMVLEPRPFIFDGLNIRCFRRETIFSLKNKILNMVKESSSFKNVSRQSVSFMYFKIFNKGKVIASTKSVNIYEDKIDERLEDLCNNFDDVLKKIIDVTYGYESLFVSETYSYVIFYAKSIYFPQPRCVNNWGNNIPNILTFDSFKLFTANKNNVSCIKQCSRFLWQKDFNTLEEMIEYKNGNICIVTPQLHINDVRDIKSFNDIRLYSFSPIKTFSVIDNTITYLFYFKEHLGVIFNITKSRHDRRVTKFSPLSKFSDVKNITVCFDIESYFDPEKESNQVNIPFICCASIIYNKVIGNIVDFEGRDCVAQMIEYVVDICGELNISSVELIAHNGGGYDFHYILSSMYNPAAIKNILIRNNSFISFNFAHDGVKFSVKDSYSFLLCSLANASKAFLNEETFKKTDFPHHDLKTADDLYKVYKEWSSVNTEINHVVEKEKLLITSEHIVNFTKNDKSKTLIEWSKDYCRNDVLVLSKVWLEFKNAVEDIFNCELVDQTMTLAGLSYKLFQANMPFDVELRHPNKEDYFNMREALIGGRCISVNGIYKDVLCLDVKSLYPASMAFYDQPYGSFKRVSSRPKDELGIYYVRVTPNRNNKSNFFPIRSHNKITYNNFEESTYIAWYTNVDIDIGLSEGHNIEYIPFDSYGNIGYSWSKKGKIFEKYIKDVLYKLKIKYEKQNNKVKRNVIKIIMNSLWGKFAQKWVNFEYFIKSEDDIDFESEEAYKIWDTDFMLIKKIKESTYSSKPIQNGVFTLSWARYHMKSIWDAGAKEGAECIYSDTDSIFVHKEHFKKNAKFMLNGLKVPIIGSEVGQLELECEFDKLLCAGKKQYMGFYTYFQDGKPCIKEKKRFKGIPSNYIIPELYAHLLSGADKEAKIQFLKFRREWGSVKGYIENKTVKAT,1.74
6,I824E: TP-DNAP1 variant (protein) MDYKDKALNDLRNVYADFDSLPLDFRQILIKDRATLLQKEDVEKKILERQEDAKKYAEYLKQSEIPERISLPNIKRHKGVSISFEETSEDMVLEPRPFIFDGLNIRCFRRETIFSLKNKILNMVKESSSFKNVSRQSVSFMYFKIFNKGKVIASTKSVNIYEDKIDERLEDLCNNFDDVLKKIIDVTYGYESLFVSETYSYVIFYAKSIYFPQPRCVNNWGNNIPNILTFDSFKLFTANKNNVSCIKQCSRFLWQKDFNTLEEMIEYKNGNICIVTPQLHINDVRDIKSFNDIRLYSESPIKTFSVIDNTITYLFYFKEHLGVIFNITKSRHDRRVTKFSPLSKFSDVKNITVCFDIESYFDPEKESNQVNIPFICCASIIYNKVIGNIVDFEGRDCVAQMIEYVVDICGELNISSVELIAHNGGGYDFHYILSSMYNPAAIKNILIRNNSFISFNFAHDGVKFSVKDSYSFLLCSLANASKAFLNEETFKKTDFPHHDLKTADDLYKVYKEWSSVNTEINHVVEKEKLLITSEHIVNFTKNDKSKTLIEWSKDYCRNDVLVLSKVWLEFKNAVEDIFNCELVDQTMTLAGLSYKLFQANMPFDVELRHPNKEDYFNMREALIGGRCISVNGIYKDVLCLDVKSLYPASMAFYDQPYGSFKRVSSRPKDELGIYYVRVTPNRNNKSNFFPIRSHNKITYNNFEESTYIAWYTNVDIDIGLSEGHNIEYIPFDSYGNIGYSWSKKGKIFEKYIKDVLYKLKIKYEKQNNKVKRNVIKIIMNSLWGKFAQKWVNFEYFIKSEDDIDFESEEAYKIWDTDFMLIKKEKESTYSSKPIQNGVFTLSWARYHMKSIWDAGAKEGAECIYSDTDSIFVHKEHFKKNAKFMLNGLKVPIIGSEVGQLELECEFDKLLCAGKKQYMGFYTYFQDGKPCIKEKKRFKGIPSNYIIPELYAHLLSGADKEAKIQFLKFRREWGSVKGYIENKTVKAT,2.12
